Increase in 570 nm emission signal (FRET, 470 nm excitation) data for one substance are collected here from patent US20210285960A1.

The target of test [1] is PL555-PA488 dual-labeled test antibody. Nature of the test: cell-based or functional assay.
In test [2] the target is Fab488-Fc555 dual-labeled test antibody. The experiment in a line: cell-based or functional assay.

“CA125 TIPS factor (MUC16/CA125), Q8WXI7 1-14451”: the increase in 570 nm emission signal (FRET, 470 nm excitation) in test [1] was 18%; in test [2] it was 35%.
